# Values joined by “and” are separate entries in the source; they are usually repeats but may differ in a detail not shown here. Equal entries are not always repeated.
# B1: Azurin, P00282 (parent)
# chain: MLRKLAAVSLLSLLSAPLLAAECSVDIQGNDQMQFNTNAITVDKSCKQFTVNLSHPGNLPKNVMGHNWVLSTAADMQGVVTDGMASGLDKDYLKPDDSRVIAHTKLIGSGEKDSVTFDVSKLKEGEQYMFFCTFPGHSALMKGTLTLK
# Variants of: B1
# Settings: Pseudomonas aeruginosa (strain ATCC 15692 / DSM 22644 / CIP 104116 / JCM 14847 / LMG 12228 / 1C / PRS 101 / PAO1), pH 7, Thermal, reversible: No, structure 5AZU, whole UniProt chain shown
# [1] = DSC, Potassium phosphate 100 mM
Variant,"Tm (Absorbance, Phosphate 10 mM)","change of melting temperature, mutant - wild type (higher = more stable) (Absorbance, Phosphate 10 mM)","change of melting temperature, mutant - wild type (higher = more stable) [1]",unfolding enthalpy (calorimetric) [1]
MLRKLAAVSLLSLLSAPLLAAECSVDIQGNDQMQFNTNAITVERSCKQFTVNLSHPGNLPKNVMGHNWVLSTAADMQGVVTDGMASGLDKDYLKPDDSRVIAHTKLIGSGEKDSVTFDVSKLKEGEQYMFFCTFPGHSALMKGTLTLR [D43E K148R K44R],75 °C,-3 °C,-1.2 °C and -0.9 °C and -1.1 °C,
MLRKLAAVSLLSLLSAPLLAAECSVDIQGNDQMQFNTNAITVDKSCKQFTVNLSHPGNLPKNVMGHNWVLSTAADMQGVVTCGMASGLDKDYLCPDDSRVIAHTKLIGSGEKDSVTFDVSKLKEGEQYMFFCTFPGHSALMKGTLTLK [D82C K94C],78 °C,0 °C,,
MLRKLAAVSLLSLLSAPLLAAECSVDIQGNDQMQFNTNAITVDRSCKQFTVNLSHPGNLPKNVMGHNWVLSTAADMQGVVTDGMASGLDKDYLKPDDSRVIAHTKLIGSGEKDSVTFDVSKLKEGEQYMFFCTFPGHSALMKGTLTLK [K44R],76 °C,-2 °C,0.8 °C and 0.6 °C and 1 °C,124 kcal/mol and 150 kcal/mol and 75.5 kcal/mol
MLRKLAAVSLLSLLSAPLLAAECSVDIQGNDQMQFNTNAITVEKSCKQFTVNLSHPGNLPKNVMGHNWVLSTAADMQGVVTDGMASGLDKDYLKPDDSRVIAHTKLIGSGEKDSVTFDVSKLKEGEQYMFFCTFPGHSALMKGTLTLR [D43E K148R],74 °C,-4 °C,,89.2 kcal/mol and 108 kcal/mol and 122 kcal/mol
